The experiment concerns the target CD47 (UniProt Q08722). The experiment is described as follows: cell-based or functional assay.
Chain of UniProt Q08722 (Q08722 19-323 limits assumed): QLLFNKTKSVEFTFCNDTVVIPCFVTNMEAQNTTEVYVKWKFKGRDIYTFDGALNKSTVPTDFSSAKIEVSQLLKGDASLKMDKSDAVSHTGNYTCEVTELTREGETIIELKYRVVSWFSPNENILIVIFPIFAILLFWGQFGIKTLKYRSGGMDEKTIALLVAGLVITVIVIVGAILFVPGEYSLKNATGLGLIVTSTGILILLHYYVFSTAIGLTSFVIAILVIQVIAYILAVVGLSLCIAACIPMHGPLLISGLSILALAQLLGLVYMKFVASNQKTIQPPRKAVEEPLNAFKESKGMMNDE

Consider “SIRPγ fusion protein SIRPγ-CD28TM-CD28 (receptor)”, for which the Specific Lysis (%) of target cells DLD1-CEA, 24 h, effector-target ratio 1:1 was 45.2%.

The values above are taken from patent publication US20230203125A1.
